Measured values taken from publication PMC8136821 (Nucleic Acids Research, 2021).

Biological target: RhpA DEAD-box RNA helicase of H. pylori, recombinant, His-tagged (H. pylori)
Assay: SPR

B1: H. pylori RNase R (HpRNase R), recombinant, His-tagged (enzyme)
chain: MQGFLRSLFFGVKKIPKPFAPLVEKGVLKEALELKKDRYFLKEGFDIGKVEKVKDKAFFISLAKNYPKDPLIKNLPPSFKTDALILCQIECSKKRPIAFFKAALLNADHTMIAYLAKKNNQIVAIPFKEPFKKPVSLKHSQKSLLELPRHCVVKIDTKKREISEILGALEDPLIDENLSLSLFDRVKDFSKDCLNLAQHYAQLKASDFKDRINYSHIPFITIDPKDAKDFDDAIFYDQEKRVLFVAVADVSEFVPKHSSLDKEARVRGFSVYFPNSVYPMLPLSLSQGACSLKAFEKRLALVYEIPLDNLKNARLSQGVIEVRANCTYEEINHFLSANQSSLDKDLQQSLLGFLEMALKLKKERLKKGFNFNSFENKLYLNKEGRIEKIETEKESDAHTLIEEAMLLANQSSARLLDEHFHNKGIYRTHKEPSLEQQKRLYDKLFDYEIVRPKNMGFFPFLEHALKIAKEKSIEREVSRLIIKSQNLALYSPLQESHFGLGFASYTHFTSPIRRYSDLALHRLLKELLFYQAKGCSYLLEETPELCAELNALQKKAALIERDFIKRKFARLALELLEKEFLGVVLEVKDWVVVGLKEFIGLKVLVKTNKVFKPLEKVRVTITHADLILGQVRGEITERIKEHVS
For B1, the Kd was 29 ± 4.4 nM and the kon was 35000 M⁻¹ s⁻¹.
